Literature values as cited in paper PMC6995525, “Structure of the PUB Domain from Ubiquitin Regulatory X Domain Protein 1 (UBXD1) and Its Interaction with the p97 AAA+ ATPase” (Biomolecules, 2019).

Target: p97 last 10 residues (Homo sapiens) (UniProt P55072)
Sequence (P55072 whole entry, looked up): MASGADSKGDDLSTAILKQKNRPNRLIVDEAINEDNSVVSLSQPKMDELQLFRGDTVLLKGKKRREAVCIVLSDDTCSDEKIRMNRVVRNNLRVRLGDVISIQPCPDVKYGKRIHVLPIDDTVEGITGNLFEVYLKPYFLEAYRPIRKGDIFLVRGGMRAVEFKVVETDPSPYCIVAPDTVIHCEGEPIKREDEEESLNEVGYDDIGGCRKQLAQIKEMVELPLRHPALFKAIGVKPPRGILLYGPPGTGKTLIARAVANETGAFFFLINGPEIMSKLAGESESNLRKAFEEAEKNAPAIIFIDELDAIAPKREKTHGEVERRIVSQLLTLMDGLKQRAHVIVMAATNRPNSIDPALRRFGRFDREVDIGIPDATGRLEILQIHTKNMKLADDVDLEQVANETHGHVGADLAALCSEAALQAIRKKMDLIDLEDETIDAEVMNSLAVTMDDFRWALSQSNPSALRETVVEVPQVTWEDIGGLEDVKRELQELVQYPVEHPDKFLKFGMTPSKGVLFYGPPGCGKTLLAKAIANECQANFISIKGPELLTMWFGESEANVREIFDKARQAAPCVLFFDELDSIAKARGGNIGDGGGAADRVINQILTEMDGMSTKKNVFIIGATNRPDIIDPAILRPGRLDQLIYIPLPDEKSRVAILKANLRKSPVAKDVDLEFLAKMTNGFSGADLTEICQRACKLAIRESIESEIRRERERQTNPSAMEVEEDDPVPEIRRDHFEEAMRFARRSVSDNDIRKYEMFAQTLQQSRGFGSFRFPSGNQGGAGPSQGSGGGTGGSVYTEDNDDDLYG

UBXD1 PUB, sequence (Q9BZV1 172-247): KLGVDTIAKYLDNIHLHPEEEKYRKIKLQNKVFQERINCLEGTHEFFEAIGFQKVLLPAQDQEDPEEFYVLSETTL

**Q.** For UBXD1 PUB (from UniProt Q9BZV1), which Kd is on record?
**A.** Its Kd is 12 µM.
